Source: patent US20040086512A1

Target: GST-Vif fusion protein (HIV-1 (HIV-1NL4-3)) (UniProt P12504)
Test: Vif-Vif binding assay (GST pull-down) without peptide, set as 100%

Chain of in vitro translated ^35S-labeled HIV-1NL4-3 Vif protein, P12504 1-192 (other; ^35S-labeled (in vitro translation in the presence of ^35S-methionine); other documents disagree on this pair) (P12504 whole entry): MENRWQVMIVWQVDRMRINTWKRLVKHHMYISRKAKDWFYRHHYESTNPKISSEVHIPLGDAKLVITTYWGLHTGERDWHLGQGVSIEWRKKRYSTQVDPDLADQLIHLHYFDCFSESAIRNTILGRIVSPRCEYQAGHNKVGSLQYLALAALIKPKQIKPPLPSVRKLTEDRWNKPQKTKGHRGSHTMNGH
Chain of GST-Vif fusion protein (HIV-1 (HIV-1NL4-3)) (P12504 whole entry, the tested form may be a part): as the sequence (P12504 whole entry) above

For “in vitro translated ^35S-labeled HIV-1NL4-3 Vif protein, P12504 1-192 (other; ^35S-labeled (in vitro translation in the presence of ^35S-methionine); other documents disagree on this pair)”, the ^35S-Vif binds with GST-Vif (%) was 100%.
